Target: K5,83R-JMD (mouse)
Assay: co-IP; RFP chimeras immunoprecipitated with rabbit polyclonal anti-RFP on Protein A beads (Figure 2C also with E2 antibody to the E-cadherin cytoplasmic domain) from MDCK extracts, 0.1% Triton X-100 in CSK buffer (50 mM NaCl, 300 mM sucrose, 10 mM Pipes pH 6.8, 3 mM MgCl2), 4°C; stable or transient expression; with or without 10 µM MG-132 for 4 h, 10 mM NEM in the extraction buffer, Src-GFP or Hakai-FLAG expression; blots for p120-catenin and tubulin

p120-catenin (natural protein) showed a fold amount co-immunoprecipitated, against WT-JMD of 10 fold and a fold increase of the amount co-immunoprecipitated upon proteasome inhibition of 0.4 fold.

Reference: publication PMC3365061
